Results reported in US20220213506A1 (Sanofi, published 2022).

B1: parental 13C3 anti-amyloid beta antibody (murine IgG) (antibody, V domains shown)
VH: EVQLQQSGPEVVKPGVSVKISCKGSGYTFTDYAMHWVKQSPGKSLEWIGVISTKYGKTNYNPSFQGQATMTVDKSSSTAYMELASLKASDSAIYYCARGDDGYSWGQGTSVTVSS
VL: EIVMTQTPLSLPVSLGDRASISCRSGQSLVHSNGNTYLHWYLQKPGQSPKLLIYTVSNRFSGVPDRFSGSGSGSDFTLTISRVEAEDLGVYFCSQNTFVPWTFGGGTKLEIK
notes: The SPR text says only 'parental IgG' or 'parental antibody'; The scFv-IgG derives from the murine 13C3 antibody (mouse IgG1); also called parental IgG; parental antibody
B2: anti-Aβ scFv-IgG (Fc fusion)
scFv: SEIVMTQTPLSLPVSLGDRASISCRSGQSLVHSNGNTYLHWYLQKPGQSPKLLIYTVSNRFSGVPDRFSGSGSGSDFTLTISRVEAEDLGVYFCSQNTFVPWTFGGGTKLEIKRTSSGGGGSGGGGSGGGGSEVQLQQSGPEVVKPGVSVKISCKGSGYTFTDYAMHWVKQSPGKSLEWIGVISTKYGKTNYNPSFQGQATMTVDKSSSTAYMELASLKASDSAIYYCARGDDGYSWGQGTSVTVSSASTGGGGGGGGGSGVPRDCGCKPCICTVPEVSSVFIFPPKPKDVLTITLTPKVTCVVVDISKDDPEVQFSWFVDDVEVHTAQTQPREEQFASTFRSVSELPIMHQDWLNGKEFKCRVNSAAFPAPIEKTISKTKGRPKAPQVYTIPPPKEQMAKDKVSLTCMITDFFPEDITVEWQWNGQPAENYKNTQPIMDTDGSYFVYSKLNVQKSNWEAGNTFTCSVLHEGLHNHHTEKSLSHSPGSGSGSGSHHHHHH
notes: Disulfide-linked homodimer; For SPR the protein was expressed in Expi293 cells and purified by IMAC; also called silent scFv-IgG; AAV-scFv-IgG (vector-expressed form)

Assays:
[1] = target: T1, Aβ1-42 fibrils (Aβ1-42 peptide, Bachem H-1368) (UniProt P05067 672-713); experiment: SPR (Biacore T200): Aβ1-42 fibrils immobilised on the sensor chip by amine coupling, antibody injected at 5-50 nM, global fit to a 1:1 binding model
T1 construct: domain: Aβ1-42; Fibrils were immobilized on the sensor chip by amine coupling, so this is a multimeric aggregate; also called fibrillar Aβ1-42; immobilized Aβ1-42 fibrils

[2] = target: T1, Aβ1-42 fibrils (Aβ1-42 peptide, Bachem …); experiment: SPR (Biacore T200), antibody flowed over amine-coupled Aβ1-42 fibrils, 1:1 fit, apparent KD
[3] = target: T1, Aβ1-42 fibrils (Aβ1-42 peptide, Bachem …); experiment: SPR (Biacore T200): Aβ1-42 fibrils immobilised on the sensor chip by amine coupling, scFv-IgG injected at 5-50 nM, global fit to a 1:1 binding model
[4] = target: T1, Aβ1-42 fibrils (Aβ1-42 peptide, Bachem …); experiment: SPR (Biacore T200), scFv-IgG flowed over amine-coupled Aβ1-42 fibrils, 1:1 fit, apparent KD

T1 sequence (P05067 672-713 limits assumed): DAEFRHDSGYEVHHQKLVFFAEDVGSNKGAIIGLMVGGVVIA

Binder | Kd [1] [pM] | Kd [2] [pM] | Kd [3] [pM] | Kd [4] [pM]
B1 | 132 | 130 | – | –
B2 | – | – | 525 | 520
